Test results published in PMC11804915, “Single-stranded DNA binding to the transcription factor PafBC triggers the mycobacterial DNA damage response”.

How the values were obtained:
PafBC WT [1] = biological target: T1, PafBC WT (Mycobacterium smegmatis, UniProt A4ZHT0;A0QZ41 1-331;1-318); assay: analytical gel filtration; ssDNA:PafBC stoichiometry ~1:1; ssDNA EMSA: 22.5 mM Hepes-KOH pH 7.8, 135 mM NaCl, 20 mM KCl, 5 mM MgCl2, 1 mM DTT, 37 C 15 min, 10 nM DNA, 0-16 uM PafBC; RNAP EMSA: 20 mM Hepes-NaOH pH 8, 100 mM K-acetate, 36 mM NaCl, 10 mM MgCl2, 2 mM DTT, 37 C 30 min; conditions: protein: recombinant; tags: C-terminal Strep on PafC; copies: 1;1; single strand
T1 sequence 1: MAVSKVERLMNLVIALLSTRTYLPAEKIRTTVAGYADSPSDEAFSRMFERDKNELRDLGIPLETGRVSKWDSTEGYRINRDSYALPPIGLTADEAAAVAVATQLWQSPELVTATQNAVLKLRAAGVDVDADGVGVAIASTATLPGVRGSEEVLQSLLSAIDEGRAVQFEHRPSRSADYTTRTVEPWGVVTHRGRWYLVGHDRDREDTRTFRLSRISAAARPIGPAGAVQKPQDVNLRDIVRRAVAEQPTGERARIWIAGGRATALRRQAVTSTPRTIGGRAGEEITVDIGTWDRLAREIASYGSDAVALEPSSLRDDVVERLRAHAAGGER
T1 sequence 2: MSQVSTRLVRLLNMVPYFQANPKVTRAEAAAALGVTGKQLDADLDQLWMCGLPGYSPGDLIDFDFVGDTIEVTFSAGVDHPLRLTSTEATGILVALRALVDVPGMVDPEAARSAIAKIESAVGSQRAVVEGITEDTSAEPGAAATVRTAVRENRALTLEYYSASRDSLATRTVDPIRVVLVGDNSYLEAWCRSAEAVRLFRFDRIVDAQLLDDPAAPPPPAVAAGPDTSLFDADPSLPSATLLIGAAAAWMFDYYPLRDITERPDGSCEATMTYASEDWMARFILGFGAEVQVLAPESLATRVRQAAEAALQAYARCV

PafBC WT [2] = biological target: T1, PafBC WT; assay: EMSA; ssDNA EMSA: 22.5 mM Hepes-KOH pH 7.8, 135 mM NaCl, 20 mM KCl, 5 mM MgCl2, 1 mM DTT, 37 C 15 min, 10 nM DNA, 0-16 uM PafBC; RNAP EMSA: 20 mM Hepes-NaOH pH 8, 100 mM K-acetate, 36 mM NaCl, 10 mM MgCl2, 2 mM DTT, 37 C 30 min; conditions: protein: recombinant, tags: C-terminal Strep on PafC, copies: 1;1, label: internal fluorescein-dT
[3] = biological target: RNAP-sigmaA holoenzyme with RbpA (Mycobacterium smegmatis SMR5 …, UniProt A0QSL8;P60281;A0QS66;A0QWT1;A0QW02;A0QZ11 1-350;1-1169;1-1317;1-107;1-466;1-114); assay: EMSA; nonspecific binding; ssDNA EMSA: 22.5 mM Hepes-KOH pH 7.8, 135 mM NaCl, 20 mM KCl, 5 mM MgCl2, 1 mM DTT, 37 C 15 min, 10 nM DNA, 0-16 uM PafBC; RNAP EMSA: 20 mM Hepes-NaOH pH 8, 100 mM K-acetate, 36 mM NaCl, 10 mM MgCl2, 2 mM DTT, 37 C 30 min; conditions: protein: native, tags: TwinStrep on RpoC, His6 removed from SigA, chain copies: 2;1;1;1;1;1, blunt
[4] = biological target: RNAP-sigmaA holoenzyme with RbpA;CarD;PafBC, PafC WYL variant (Mycobacterium smegmatis SMR5 …, UniProt A0QSL8;P60281;A0QS66;A0QWT1;A0QW02;A0QZ11;A0R561;A4ZHT0;A0QZ41 …, ||R201A;R204A); assay: EMSA; 5 uM dT12 ssDNA; efficiency similar to WT; ssDNA EMSA: 22.5 mM Hepes-KOH pH 7.8, 135 mM NaCl, 20 mM KCl, 5 mM MgCl2, 1 mM DTT, 37 C 15 min, 10 nM DNA, 0-16 uM PafBC; RNAP EMSA: 20 mM Hepes-NaOH pH 8, 100 mM K-acetate, 36 mM NaCl, 10 mM MgCl2, 2 mM DTT, 37 C 30 min; conditions: protein: native;recombinant;recombinant; tags: TwinStrep on RpoC; His6 removed from SigA;His6-thioredoxin removed by TEV;C-terminal Strep on PafC; chain copies: 2;1;1;1;1;1;1;1;1; label: 5' FAM on strand 1; blunt, internal non-complementary bubble 13 nt
[5] = biological target: RNAP-sigmaA holoenzyme with RbpA;PafBC WT (Mycobacterium smegmatis SMR5 …, UniProt A0QSL8;P60281;A0QS66;A0QWT1;A0QW02;A0QZ11;A4ZHT0;A0QZ41 …, |); assay: EMSA; 5 uM dT12 ssDNA; PafBC shifts RNAP-DNA band; ssDNA EMSA: 22.5 mM Hepes-KOH pH 7.8, 135 mM NaCl, 20 mM KCl, 5 mM MgCl2, 1 mM DTT, 37 C 15 min, 10 nM DNA, 0-16 uM PafBC; RNAP EMSA: 20 mM Hepes-NaOH pH 8, 100 mM K-acetate, 36 mM NaCl, 10 mM MgCl2, 2 mM DTT, 37 C 30 min; conditions: protein: native;recombinant; tags: TwinStrep on RpoC; His6 removed from SigA;C-terminal Strep on PafC; chain copies: 2;1;1;1;1;1;1;1; label: 5' FAM on strand 1; blunt, internal non-complementary bubble 13 nt
[6] = biological target: RNAP-sigmaA holoenzyme with RbpA;CarD;PafBC, PafB Y196A (Mycobacterium smegmatis SMR5 …, UniProt A0QSL8;P60281;A0QS66;A0QWT1;A0QW02;A0QZ11;A0R561;A4ZHT0;A0QZ41 …, ||Y196A); assay: EMSA; 5 uM dT12 ssDNA; retains association with RNAP; ssDNA EMSA: 22.5 mM Hepes-KOH pH 7.8, 135 mM NaCl, 20 mM KCl, 5 mM MgCl2, 1 mM DTT, 37 C 15 min, 10 nM DNA, 0-16 uM PafBC; RNAP EMSA: 20 mM Hepes-NaOH pH 8, 100 mM K-acetate, 36 mM NaCl, 10 mM MgCl2, 2 mM DTT, 37 C 30 min; conditions: protein: native;recombinant;recombinant; tags: TwinStrep on RpoC; His6 removed from SigA;His6-thioredoxin removed by TEV;C-terminal Strep on PafC; chain copies: 2;1;1;1;1;1;1;1;1; label: 5' FAM on strand 1; blunt, internal non-complementary bubble 13 nt
[7] = biological target: RNAP-sigmaA holoenzyme with RbpA;CarD;PafBC, PafB WYL variant (Mycobacterium smegmatis SMR5 …, UniProt A0QSL8;P60281;A0QS66;A0QWT1;A0QW02;A0QZ11;A0R561;A4ZHT0;A0QZ41 …, ||R214A;PafB:R211A); assay: EMSA; 5 uM dT12 ssDNA; PafBC variant does not join RNAP-DNA; ssDNA EMSA: 22.5 mM Hepes-KOH pH 7.8, 135 mM NaCl, 20 mM KCl, 5 mM MgCl2, 1 mM DTT, 37 C 15 min, 10 nM DNA, 0-16 uM PafBC; RNAP EMSA: 20 mM Hepes-NaOH pH 8, 100 mM K-acetate, 36 mM NaCl, 10 mM MgCl2, 2 mM DTT, 37 C 30 min; conditions: protein: native;recombinant;recombinant; tags: TwinStrep on RpoC; His6 removed from SigA;His6-thioredoxin removed by TEV;C-terminal Strep on PafC; chain copies: 2;1;1;1;1;1;1;1;1; label: 5' FAM on strand 1; blunt, internal non-complementary bubble 13 nt
[8] = biological target: RNAP-sigmaA holoenzyme with RbpA;CarD;PafBC, PafB R181A/R204A/R208A (Mycobacterium smegmatis SMR5 …, UniProt A0QSL8;P60281;A0QS66;A0QWT1;A0QW02;A0QZ11;A0R561;A4ZHT0;A0QZ41 …, ||R204A;R208A;PafB:R181A); assay: as above; conditions: protein: native;recombinant;recombinant; tags: TwinStrep on RpoC; His6 removed from SigA;His6-thioredoxin removed by TEV;C-terminal Strep on PafC; chain copies: 2;1;1;1;1;1;1;1;1; label: 5' FAM on strand 1; blunt, internal non-complementary bubble 13 nt
[9] = biological target: RNAP-sigmaA holoenzyme with RbpA;CarD;PafBC WT (Mycobacterium smegmatis SMR5 …, UniProt A0QSL8;P60281;A0QS66;A0QWT1;A0QW02;A0QZ11;A0R561;A4ZHT0;A0QZ41 …, ||); assay: EMSA; ssDNA …; no effect of CarD on complex formation; ssDNA EMSA: 22.5 mM Hepes-KOH pH 7.8, 135 mM NaCl, 20 mM KCl, 5 mM MgCl2, 1 mM DTT, 37 C 15 min, 10 nM DNA, 0-16 uM PafBC; RNAP EMSA: 20 mM Hepes-NaOH pH 8, 100 mM K-acetate, 36 mM NaCl, 10 mM MgCl2, 2 mM DTT, 37 C 30 min; conditions: protein: native;recombinant;recombinant; tags: TwinStrep on RpoC; His6 removed from SigA;His6-thioredoxin removed by TEV;C-terminal Strep on PafC; chain copies: 2;1;1;1;1;1;1;1;1; label: 5' FAM on strand 1; blunt, internal non-complementary bubble 13 nt
PafBC WT, cryo-EM sample = biological target: T2, PafBC WT, cryo-EM sample (Mycobacterium smegmatis, UniProt A4ZHT0;A0QZ41 1-331;1-318); assay: cryo-EM; within RNAP-sigmaA promoter complex; formaldehyde-fixed; second entry 9FNE; ssDNA EMSA: 22.5 mM Hepes-KOH pH 7.8, 135 mM NaCl, 20 mM KCl, 5 mM MgCl2, 1 mM DTT, 37 C 15 min, 10 nM DNA, 0-16 uM PafBC; RNAP EMSA: 20 mM Hepes-NaOH pH 8, 100 mM K-acetate, 36 mM NaCl, 10 mM MgCl2, 2 mM DTT, 37 C 30 min; conditions: protein: recombinant; copies: 1;1; single strand
T2 sequence 1: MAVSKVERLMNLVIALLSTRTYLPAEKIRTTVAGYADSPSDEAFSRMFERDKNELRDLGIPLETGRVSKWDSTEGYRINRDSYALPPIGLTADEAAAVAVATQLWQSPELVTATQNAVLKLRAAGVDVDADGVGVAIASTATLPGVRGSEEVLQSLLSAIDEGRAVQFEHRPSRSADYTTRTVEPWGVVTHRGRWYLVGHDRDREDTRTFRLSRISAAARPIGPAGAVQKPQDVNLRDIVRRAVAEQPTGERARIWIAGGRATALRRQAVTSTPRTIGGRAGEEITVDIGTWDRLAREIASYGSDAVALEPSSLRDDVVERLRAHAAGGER
T2 sequence 2: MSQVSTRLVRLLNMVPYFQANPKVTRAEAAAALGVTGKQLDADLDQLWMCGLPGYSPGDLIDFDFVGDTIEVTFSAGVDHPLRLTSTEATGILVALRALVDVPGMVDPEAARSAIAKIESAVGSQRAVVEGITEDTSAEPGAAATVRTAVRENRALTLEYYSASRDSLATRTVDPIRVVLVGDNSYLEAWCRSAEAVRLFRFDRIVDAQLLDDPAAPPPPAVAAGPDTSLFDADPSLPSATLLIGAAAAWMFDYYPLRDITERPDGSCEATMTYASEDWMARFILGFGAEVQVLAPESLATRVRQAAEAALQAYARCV

TTTTTTTTTTTTTTTTTTTT (ssDNA) [dT20 ssDNA unlabeled]
binding result (PafBC WT [1]): binds

B1: blocked end ssDNA (dT12 between two hairpins) (structured_DNA)
DNA: GGGCCCGGGCCCGGTATATCCGGGCCCGGGCCCTTTTTTTTTTTTCCCGGGCCCGGGCCTATATGGCCCGGGCCCGGG
binding result (PafBC WT [2]; two hairpins, 14 bp stems, 5 nt loops): binds

B2: housekeeping promoter with -10 bubble (dsDNA)
DNA 1: CCCCGTTTTGGGGCAGATGCGATTCTGAAATACTGCTTTGTCTGGCTTGTCAAGTCGCTCTGGACCGGGTTGTTTTC
DNA 2: GAAAACAACCCGGTCCAGAGCGACTTGACAAGCCAGACAAAGCAGTATTAAGCTGGCAGGGTTGCCCCAAAACGGGG
binding result ([3]; label: 5' FAM on strand 2, internal non-complementary bubble): binds

GGGCCCGGGCCCGGTATATCCGGGCCCGGGCCC (structured_DNA) [hairpin DNA control]
binding result (PafBC WT [2]; hairpin, 14 bp stem, 5 nt loop): no binding

B3: PafBC-specific promoter with -10 bubble (dsDNA)
DNA 1: TCGTCTACTGTGGTGAAGAGTTCGACCGGACTTGTCGGTGGTCTGCTCTAACGTCACGGCCAACCGATCGGAACACC
DNA 2: GGTGTTCCGATCGGTACCGGACATGTAAAGAGCAGACCACCGACAAGTCCGGTCGAACTCTTCACCACAGTAGACGA
binding result ([3]; label: 5' FAM on strand 1, internal non-complementary bubble 13 nt): binds
binding result [4]: binds
binding result [5]: binds
binding result [6]: binds
binding result [7]: no binding
binding result [8]: no binding
binding result [9]: binds

TTGTTGTTGTT (ssDNA) [cryo-EM ssDNA ligand]
binding result (PafBC WT, cryo-EM sample): binds

B4: nonspecific DNA with bubble (dsDNA)
DNA 1: GTCGTGAAGGACACCGCCGAAGCGCCCAAGACGGCCGACGAGAAAGCCGCCGAGGCCACCGGGCCCAGCAAGGTCAA
DNA 2: TTGACCTTGCTGGGCGTCAGCATGCGAACGGCTTTCTCGTCGGCCGTCTTGGGCGCTTCGGCGGTGTCCTTCACGAC
binding result ([3]; label: 5' FAM on strand 1, internal non-complementary bubble): binds
